# According to paper PMC314469, “Protein Interaction Networks by Proteome Peptide Scanning” (PLoS Biology, 2004):
# B1: YBR239C 260-273 (peptide)
# chain: LNFKRLLPRDPSEK
# B2: YKL216W 87-100 (peptide)
# chain: LNRQKNYPDAPAIF
# B3: YLR072W 61-74 (peptide)
# chain: LNGLKSSPADPHLS
# B4: YJL128C 180-193 (peptide)
# chain: LNPNRRAPRRPLST
# B5: YBL101C 22-35 (peptide)
# chain: LNQSKGQPFQPSPT
# B6: YOL152W 75-88 (peptide)
# chain: LPEKKNSPTTPSVF
# B7: YDR402C 27-40 (peptide)
# chain: LNFPKNIPTIPFYV
# B8: YOL006C 316-329 (peptide)
# chain: LNLSKDAPVPPAPE
# B9: YOR231W 77-90 (peptide)
# chain: LNTMKKRPAPPSLP
# B10: YJR005W 603-616 (peptide)
# chain: LNKTKLLPQSPILN
# B11: YFL013C 529-542 (peptide)
# chain: LNRKKVTPQLPKVT
# Target: T1, Boi1 SH3 (BOI1_YEAST), P38041
# T1 chain: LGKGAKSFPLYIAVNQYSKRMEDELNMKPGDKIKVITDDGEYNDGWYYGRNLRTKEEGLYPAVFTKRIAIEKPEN
# Assay: SPOT array
row,Binder,"normalised SPOT signal, Boehringer light units (BLU); mean over the file's lines of this peptide"
1,B1,1070
2,B2,71.2
3,B3,63.9
4,B4,4910
5,B5,139
6,B6,88.9
7,B7,92.6
8,B8,103
9,B9,97.3
10,B10,93.4
11,B11,384

# Target: T2, Boi2 SH3 (BOI2_YEAST), P39969
# T2 chain: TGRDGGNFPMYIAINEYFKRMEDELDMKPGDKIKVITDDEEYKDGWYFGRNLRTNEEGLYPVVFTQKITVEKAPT
# Assay: SPOT array
row,Binder,"normalised SPOT signal, Boehringer light units (BLU); mean over the file's lines of this peptide"
1,B1,57.4
2,B2,7.9
3,B3,39.1
4,B4,506
5,B5,0
6,B6,0
7,B7,-0
8,B8,19.2
9,B9,72.5
10,B10,8.8
11,B11,27.9

# Target: T3, Myo5 SH3 (MYO5_YEAST), Q04439
# T3 chain: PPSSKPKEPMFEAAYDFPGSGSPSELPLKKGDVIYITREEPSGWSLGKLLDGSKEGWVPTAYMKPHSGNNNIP
# Assay: SPOT array
row,Binder,"normalised SPOT signal, Boehringer light units (BLU); mean over the file's lines of this peptide"
1,B1,554
2,B2,86.4
3,B3,153
4,B4,8000
5,B5,255
6,B6,102
7,B7,256
8,B8,161
9,B9,22300
10,B10,118
11,B11,500

# Target: T4, Rvs167 SH3 (RV167_YEAST), P39743
# T4 chain: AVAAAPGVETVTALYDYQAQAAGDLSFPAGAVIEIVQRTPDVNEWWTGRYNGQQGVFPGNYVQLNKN
# Assay: SPOT array
row,Binder,"normalised SPOT signal, Boehringer light units (BLU); mean over the file's lines of this peptide"
1,B1,1630
2,B2,63.3
3,B3,60.3
4,B4,1240
5,B5,111
6,B6,67.3
7,B7,53
8,B8,128
9,B9,271
10,B10,35.5
11,B11,75.9

# Target: Sho1 SH3 (SHO1_YEAST), P40073
# Assay: SPOT array
# Sho1 SH3 (SHO1_YEAST), P40073, sequence (P40073 295-366): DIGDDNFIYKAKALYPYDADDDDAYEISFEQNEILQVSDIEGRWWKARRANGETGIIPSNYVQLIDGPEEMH
row,Binder,"normalised SPOT signal, Boehringer light units (BLU); mean over the file's lines of this peptide"
1,B1,1360
2,B2,56.9
3,B3,20.5
4,B4,585
5,B5,24.8
6,B6,54.9
7,B7,131
8,B8,54.1
9,B9,374
10,B10,1920
11,B11,263

# Target: T5, Yfr024 SH3 (LSB3_YEAST), P43603
# T5 chain: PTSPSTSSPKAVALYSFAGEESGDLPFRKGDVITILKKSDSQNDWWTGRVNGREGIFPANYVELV
# Assay: SPOT array
row,Binder,"normalised SPOT signal, Boehringer light units (BLU); mean over the file's lines of this peptide"
1,B1,1290
2,B2,38.6
3,B3,2.4
4,B4,3720
5,B5,16
6,B6,11.4
7,B7,26.9
8,B8,0
9,B9,1440
10,B10,71.9
11,B11,142

# Target: T6, Yhr016c SH3 (YSC84_YEAST), P32793
# T6 chain: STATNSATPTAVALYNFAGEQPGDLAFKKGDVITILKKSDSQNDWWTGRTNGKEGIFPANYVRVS
# Assay: SPOT array
row,Binder,"normalised SPOT signal, Boehringer light units (BLU); mean over the file's lines of this peptide"
1,B1,3490
2,B2,19.7
3,B3,23.9
4,B4,173
5,B5,26.4
6,B6,22.9
7,B7,22.8
8,B8,81
9,B9,202
10,B10,14.5
11,B11,22.7
